As usually defined, the Kd is the constant that tells how readily two partners part at equilibrium.

The values below come from publication PMC10462845 (Neoplasia (New York, N.Y.), 2023).

Assay in all cases: MST
In assay [1] the target is C-terminal BTB/POZ containing fragment of KCTD1 (BTB/POZ1) (UniProt Q719H9).
The target of assay [2] is BTB/POZ domain of KCTD15 (BTB/POZ15) (UniProt Q96SI1).
For assay [3], the target named is T1, C-terminal BTB/POZ containing fragment of KCTD1 (BTB/POZ1) (UniProt Q719H9 1-257).
T1 sequence: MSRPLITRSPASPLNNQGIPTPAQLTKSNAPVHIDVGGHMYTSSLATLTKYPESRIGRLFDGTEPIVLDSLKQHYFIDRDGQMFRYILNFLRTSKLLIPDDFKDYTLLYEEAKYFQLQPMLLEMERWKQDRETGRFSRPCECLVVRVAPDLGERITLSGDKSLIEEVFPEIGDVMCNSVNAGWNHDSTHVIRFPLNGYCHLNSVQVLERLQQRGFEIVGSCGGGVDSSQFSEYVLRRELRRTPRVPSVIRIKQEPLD

BTB/POZ domain of KCTD15 (BTB/POZ15), sequence (Q96SI1 whole entry, the tested form may be a part): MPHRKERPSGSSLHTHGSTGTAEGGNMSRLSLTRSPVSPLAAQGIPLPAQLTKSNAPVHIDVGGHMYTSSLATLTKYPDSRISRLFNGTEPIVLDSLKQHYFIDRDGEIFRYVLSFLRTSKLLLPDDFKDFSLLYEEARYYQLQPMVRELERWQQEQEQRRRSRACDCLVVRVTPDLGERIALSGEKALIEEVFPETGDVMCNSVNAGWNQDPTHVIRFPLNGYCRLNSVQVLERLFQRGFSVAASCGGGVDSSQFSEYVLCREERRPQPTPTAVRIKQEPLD

B1: KCASH2 (KCTD21), full length, recombinant (natural protein)
chain: MSDPITLNVGGKLYTTSLATLTSFPDSMLGAMFSGKMPTKRDSQGNCFIDRDGKVFRYILNFLRTSHLDLPEDFQEMGLLRREADFYQVQPLIEALQEKEVELSKAEKNAMLNITLNQRVQTVHFTVREAPQIYSLSSSSMEVFNANIFSTSCLFLKLLGSKLFYCSNGNLSSITSHLQDPNHLTLDWVANVEGLPEEEYTKQNLKRLWVVPANKQINSFQVFVEEVLKIALSDGFCIDSSHPHALDFMNNKIIRLIRYR
As for B1, the Kd in assay [1] was 3.9 µM; in assay [2], 6.6 µM.

B2: BTB/POZ domain of KCASH1 (KCTD11) (BTB/POZ11) (domain or fragment)
chain: GPVTLNVGGTLYSTTLETLTRFPDSMLGAMFRAGTPMPPNLNSQGGGHYFIDRDGKAFRHILNFLRLGRLDLPRGYGETALLRAEADFYQIRPLLDALRELEASQG
The molecule B2 displayed a Kd in assay [3] of 0.8 ± 0.1 µM.
